Legend:
HLA-A*02:01 = HLA-A*02:01 (Homo sapiens, UniProt P04439, D140Y/D185E/D98H/E176V/E277Q/G131W/G231S/I119V/I121R/I166T/I218V/L300P/L318F/N151K/N90K/P208A/P217A/Q86G/Q94H/R138H/R169H/T345S); test: MHC binding assay: UV-ligand exchange with β2m ELISA (peptide exchange yield); conditions: MHC class I binding score; binding to HLA-A*02:01 ranged by peptide exchange yield (UV-ligand exchange, β2m ELISA)
Summary of the method: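 UV-exchange pMHC monomers, 100-fold diluted → streptavidin capture 1 h 37 °C → HRP anti-β2m 2 ug/ml 1 h 37 °C → TMB, A450. Yield from HLA-A*02:01/MLA-001 monomer standard curve, 15-500 ng/ml. Only stably bound peptides keep β2m-containing complexes intact.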

CD8+ T cells = test: In vitro immunogenicity: T-cell priming with aAPCs loaded with peptide/MHC and anti-CD28, pMHC multimer readout; format: cell-based, human; conditions: CD8+ T cells of healthy donors, three stimulation cycles; for Wells positive [%]: HLA-A*02 restricted peptides; for wells (in vitro immunogenicity, positive wells): HLA class I peptides
Procedure: In an aspect, the peptides are pre-screened for immunogenicity before being included in the warehouse. By way of example, and not limitation, the immunogenicity of the peptides included in the warehouse is determined by a method comprising in vitro T-cell priming through repeated stimulations of CD8+ T cells from healthy donors with artificial antigen presenting cells loaded with peptide/MHC complexes and anti-CD28 antibody.
CD8+ T cells were primed using artificial APCs coated with anti-CD28 mAb and HLA-A*02 in complex with SeqID No 1 peptide (FIG. 3C, left panel), SeqID No 5 peptide (FIG. 3D left panel), SeqID No 32 peptide (FIG. 3E, left panel) and SeqID No 220 peptide (FIG. 3F, left panel), respectively. After three cycles of stimulation, the detection of peptide-reactive cells was performed by 2D multimer staining with A*02/SeqID No 1 (FIG. 3C), A*02/SeqID No 5 (FIG. 3D), A*02/SeqID No 32 (FIG. 3E) or A*02/SeqID No 220 (FIG. 3F). Right panels (FIGS. 3C, 3D, 3E and 3F) show control staining of cells stimulated with irrelevant A*02/peptide complexes. Viable singlet cells were gated for CD8+ lymphocytes. Boolean gates helped excluding false-positive events detected with multimers specific for different peptides.
In order to obtain information regarding the immunogenicity of the TUMAPs of the present invention, the inventors performed investigations using an in vitro T-cell priming assay based on repeated stimulations of CD8+ T cells with artificial antigen presenting cells (aAPCs) loaded with peptide/MHC complexes and anti-CD28 antibody.
In order to perform in vitro stimulations by artificial antigen presenting cells loaded with peptide-MHC complex (pMHC) and anti-CD28 antibody, the inventors first isolated CD8+ T cells from fresh HLA-A*02 leukapheresis products via positive selection using CD8 microbeads (Miltenyi Biotec, Bergisch-Gladbach, Germany) of healthy donors obtained from the University clinics Mannheim, Germany, after informed consent.
PBMCs and isolated CD8+ lymphocytes were incubated in T-cell medium (TCM) until use consisting of RPMI-Glutamax (Invitrogen, Karlsruhe, Germany) supplemented with 10% heat inactivated human AB serum (PAN-Biotech, Aidenbach, Germany), 100 U/ml Penicillin/100 μg/ml Streptomycin (Cambrex, Cologne, Germany), 1 mM sodium pyruvate (CC Pro, Oberdorla, Germany), 20 μg/ml Gentamycin (Cambrex). 2.5 ng/ml IL-7 (PromoCell, Heidelberg, Germany) and 10 U/ml IL-2 (Novartis Pharma, Nirnberg, Germany) were also added to the TCM at this step.
Generation of pMHC/anti-CD28 coated beads, T-cell stimulations and readout was performed in a highly defined in vitro system using four different pMHC molecules per stimulation condition and 8 different pMHC molecules per readout condition.
The purified co-stimulatory mouse IgG2a anti human CD28 Ab 9.3 (Jung et al., 1987) was chemically biotinylated using Sulfo-N-hydroxysuccinimidobiotin as recommended by the manufacturer (Perbio, Bonn, Germany). Beads used were 5.6 μm diameter streptavidin coated polystyrene particles (Bangs Laboratories, Illinois, USA).
800.000 beads/200 μl were coated in 96-well plates in the presence of 4×12.5 ng different biotin-pMHC, washed and 600 ng biotin anti-CD28 were added subsequently in a volume of 200 μl. Stimulations were initiated in 96-well plates by co-incubating 1×10^6 CD8+ T cells with 2×10^5 washed coated beads in 200 μl TCM supplemented with 5 ng/ml IL-12 (PromoCell) for 3 days at 37° C. Half of the medium was then exchanged by fresh TCM supplemented with 80 U/ml IL-2 and incubating was continued for 4 days at 37° C. This stimulation cycle was performed for a total of three times. For the pMHC multimer readout using 8 different pMHC molecules per condition, a two-dimensional combinatorial coding approach was used as previously described (Andersen et al., 2012) with minor modifications encompassing coupling to 5 different fluorochromes.

Substance | Peptide Exchange (HLA-A*02:01) | Wells positive [%] (CD8+ T cells) | wells (in vitro immunogenicity, positive wells) (CD8+ T cells)
49 (FLTDLFAQL; listed as Homo sapiens) [compound 49] | ″++++″ (≥75% = ++++) | ″++″ (20%-49% = ++) | –
57 (GLSEISLRL; listed as Homo sapiens) [compound 57] | ″++++″ (≥75% = ++++) | ″+″ (<20% = +) | –
307 (LLLTKPTEA; listed as Homo sapiens) [compound 307] | ″+++″ (≥50 = +++) | ″+″ (<20% = +) | –
323 (SLDLFNCEV; listed as Homo sapiens) [compound 323] | ″++++″ (≥75% = ++++) | ″+″ (<20% = +) | –
26 (AVLLVLPLV; listed as Homo sapiens) [compound 26] | ″+++″ (≥50 = +++) | ″+″ (<20% = +) | –
332 (VMIQHVENL; listed as Homo sapiens) [compound 332] | ″+++″ (≥50 = +++) | ″+″ (<20% = +) | –
202 (YVDDVFLRV; listed as Homo sapiens) [compound 202] | ″++++″ (≥75% = ++++) | ″++″ (20%-49% = ++) | –
56 (FVFEAPYTL; listed as Homo sapiens) [compound 56] | ″+++″ (≥50 = +++) | ″++″ (20%-49% = ++) | –
154 (SLLAELHVLTV; listed as Homo sapiens) [compound 154] | ″++++″ (≥75% = ++++) | ″+″ (<20% = +) | –
101 (ILVVIEPLL; listed as Homo sapiens) [compound 101] | ″++++″ (≥75% = ++++) | ″+″ (<20% = +) | –
220 (ALPEILFAKV; listed as Homo sapiens) [compound 220] | ″+++″ (≥50 = +++) | ″++″ (20%-49% = ++) | –
54 (FLYPFPLALF; listed as Homo sapiens) [compound 54] | ″+++″ (≥50 = +++) | ″+″ (<20% = +) | –
17 (ALTKTNLQL; listed as Homo sapiens) [compound 17] | ″+++″ (≥50 = +++) | ″+″ (<20% = +) | –
96 (ILIDKTSFV; listed as Homo sapiens) [compound 96] | ″+++″ (≥50 = +++) | ″+″ (<20% = +) | –
427 (LLYDAVHIV; listed as Homo sapiens) [compound 427] | – | – | ++ (20%-49% = ++)
1 (AIPPSFASIFL; listed as Homo sapiens) [compound 1] | ″+++″ (≥50 = +++) | ″+++″ (50%-69% = +++) | –
81 (WLVGQEFEL; listed as Homo sapiens) [compound 81] | ″+++″ (≥50 = +++) | ″+″ (<20% = +) | –
329 (VLMDGSVKL; listed as Homo sapiens) [compound 329] | ″++++″ (≥75% = ++++) | ″+++″ (50%-69% = +++) | –
281 (NLLDDRGMTAL; listed as Homo sapiens) [compound 281] | ″+++″ (≥50 = +++) | ″+″ (<20% = +) | –
32 (FIDKFTPPV; listed as Homo sapiens) [compound 32] | ″++++″ (≥75% = ++++) | ″++++″ (> = 70% = ++++) | –
100 (ILNNEVFAI; listed as Homo sapiens) [compound 100] | ″+++″ (≥50 = +++) | ″++″ (20%-49% = ++) | –
200 (YMFEEVPIVI; listed as Homo sapiens) [compound 200] | ″++++″ (≥75% = ++++) | ″+″ (<20% = +) | –
114 (LIPEGPPQV; listed as Homo sapiens) [compound 114] | ″+++″ (≥50 = +++) | ″+″ (<20% = +) | –

Substance | Peptide Exchange (HLA-A*02:01) | Wells positive [%] (CD8+ T cells) | wells (in vitro immunogenicity, positive wells) (CD8+ T cells)
197 (YLQEVPILTL; listed as Homo sapiens) [compound 197] | ″++++″ (≥75% = ++++) | ″+″ (<20% = +) | –
86 (HLYPGAVTI; listed as Homo sapiens) [compound 86] | ″+++″ (≥50 = +++) | ″+″ (<20% = +) | –
201 (YQLELHGIEL; listed as Homo sapiens) [compound 201] | ″++++″ (≥75% = ++++) | ″+″ (<20% = +) | –
5 (ALIFKIASA; listed as Homo sapiens) [compound 5] | ″+++″ (≥50 = +++) | ″+++″ (50%-69% = +++) | –
521 (YLYGQTTTYL; listed as Homo sapiens) [compound 521] | – | – | ++ (20%-49% = ++)
204 (GLLQINDKIAL; listed as Homo sapiens) [compound 204] | ″+++″ (≥50 = +++) | – | –
302 (ILQDLTFVHL; listed as Homo sapiens) [compound 302] | ″+++″ (≥50 = +++) | – | –
137 (NLIKTVIKL; listed as Homo sapiens) [compound 137] | ″+++″ (≥50 = +++) | – | –
233 (GIIDINVRL; listed as Homo sapiens) [compound 233] | ″++″ (≥20% = ++) | – | –
37 (FIMEGGAMVL; listed as Homo sapiens) [compound 37] | ″++++″ (≥75% = ++++) | – | –
182 (VLLSVPGPPV; listed as Homo sapiens) [compound 182] | ″+++″ (≥50 = +++) | – | –
351 (ALSEKLARL; listed as Homo sapiens) [compound 351] | ″+++″ (≥50 = +++) | – | –
108 (VIYTLIHYI; listed as Homo sapiens) [compound 108] | ″+++″ (≥50 = +++) | – | –
79 (GLQAKIQEA; listed as Homo sapiens) [compound 79] | ″+++″ (≥50 = +++) | – | –
142 (QLDEPAPQV; listed as Homo sapiens) [compound 142] | ″++″ (≥20% = ++) | – | –
87 (HQIEAVDGEEL; listed as Homo sapiens) [compound 87] | ″++″ (≥20% = ++) | – | –
83 (GQGEVLVYV; listed as Homo sapiens) [compound 83] | ″+++″ (≥50 = +++) | – | –
113 (KVPAEEVLVAV; listed as Homo sapiens) [compound 113] | ″+++″ (≥50 = +++) | – | –
186 (VMDPTKILI; listed as Homo sapiens) [compound 186] | ″++++″ (≥75% = ++++) | – | –
312 (LLYNSTDPTL; listed as Homo sapiens) [compound 312] | ″+++″ (≥50 = +++) | – | –
127 (LLPTAPTTV; listed as Homo sapiens) [compound 127] | ″+++″ (≥50 = +++) | – | –
306 (VVAEELENV; listed as Homo sapiens) [compound 306] | ″++″ (≥20% = ++) | – | –
371 (SLADDSVLERL; listed as Homo sapiens) [compound 371] | ″+++″ (≥50 = +++) | – | –

— patent US10117916B2, “Peptides and combination of peptides for use in immunotherapy against CLL and other cancers” (immatics biotechnologies GmbH, priority 2015, dated 2018)
